Assay results taken from patent publication US20250381281A1, “METHODS OF MANUFACTURING PEPTIDE-BASED VACCINES” (priority 2018, published 2025).
Non-standard residues stand in square brackets, D forms with d. Primed or numbered codes have the meaning given here. No end group written: not given here. Lys(N3)′ = its azide, alkyne or alkene has reacted where a group follows in round brackets; DBCO′ = not defined here; F′ = aminophenylalanine; Ahx = NCCCCCC(=O)O

Key:
CD8 T cell responses [1] = test: CD8 T cell response of mice vaccinated with Adpgk peptide antigen conjugates, intracellular cytokine staining for IFN-g; assay type: in vivo, C57BL/6 mice; details: SC route; vaccinated day 0, 14, 28; whole blood
Protocol: Mice were vaccinated on day 0, 14, and 28. CD8 T cell responses were measured on day 12, 21, and 35 from whole blood using an intracellular cytokine staining assay for IFN-g production;

CD8 T cell responses [2] = test: CD8 T cell response of mice vaccinated with Cpne1 peptide antigen conjugates, intracellular cytokine staining for IFN-g; assay type: in vivo, C57BL/6 mice; details: SC route; vaccinated day 0, 14, 28; whole blood
Protocol: Mice were vaccinated on day 0, 14, and 28. CD8 T cell responses were measured on day 7, 21, 35, and 42 from whole blood using an intracellular cytokine staining assay for IFN-g production; and
To evaluate the suitability of immunogenic compositions based on peptide antigen fragments comprising aryl amines, mice were either vaccinated with peptide antigen conjugates of formula C-B1-A-B2-L-H, either comprising a charged moiety with positive charge, […] Tyr-Ser-Pro-Val-Cit-Lys(N3-DBCO)-Glu(2B)-Trp-Glu(2B)-Trp-Glu(2B)—NH2 (SEQ ID NO: 76) or a charged moiety with negative charge and a B2 comprised of amino acids bearing aryl amines, i.e., Ac-Glu-Glu-Glu-Glu-Glu-Val-Cit-[…]Try-[…]Cit-Phe(NH2)-Phe(NH2)-Phe(NH2)-Phe(NH2)-Lys(N3-DBCO)-Glu(2B)-Trp-Glu(2B)-Trp-Glu(2B)—NH2 (SEQ ID NO: 42), wherein Phe(NH2) is para-amino-phenylalanine.

[3] = Particle size and stability of amphiphilic carrier molecules by dynamic light scattering; assay type: physicochemical; details: PBS pH 7.4, 0.5 mg/mL, peptide-based linear carriers
Protocol: This reaction scheme was used to prepare different compositions of amphiphilic carrier molecules that were characterized for the capacity to form stable nanoparticle micelles in aqueous buffer, PBS pH 7.4, at a concentration of 0.5 mg/mL of amphiphilic carrier molecule. The results of these studies are summarized below according to the chemical composition and architecture of the amphiphilic carrier molecule.
A series of linear amphiphilic carriers of formula C-B-L-H, wherein the charged moiety (C) and spacer (B) comprises peptides, i.e., poly(lysine) and poly(serine-co-glycine), respectively, with varying hydrophobic block composition were evaluated for particle size and stability by dynamic light scattering. […]

| Substance | Size (diameter, nm) [3] [nm] | also measured |
| --- | --- | --- |
| Ac-Glu-Glu-Glu-Glu-Glu-Glu-Glu-Val-Cit-Gly-Ile-Pro-Val-His-Leu-Glu-Leu-Ala-Ser-Met-Thr-Asn-Met-Glu-Leu-Met-Ser-Ser-Ile-Val- His-Gln-Gln-Val-Phe-Pro-Thr-Ser-Pro-Val-Cit-Phe(NH2)-Phe(NH2)-Phe(NH2)-Phe(NH2)-Lys(N3-DBCO)-Glu(2B)-Trp-Glu(2B)-Trp-Glu(2B)—NH2 (EEEEEEEVXGIPVHLELASMTNMELMSSIVHQQVFPTSPVXXXXXX; N-acetyl, citrulline, Phe(NH2), DBCO click, Glu(2B), amide; SITE 1 Wherein Glu is modified with an acetyl group at the N-terminus; SITE 9 citrulline (Cit); SITE 41 citrulline (Cit); SITE 42..45 para-amino-phenylalanine; SITE 46 azido-lysine (Lys(N3))) [SEQ ID NO: 40] |  | CD8 T cell responses (CD8 T cell responses [1]): CD8 T cell responses were induced in all animals |
| Ac-Glu-Glu-Glu-Glu-Glu-Val-Cit-Asp-Phe-Thr-Gly-Ser-Asn-Gly-Asp-Pro-Ser-Ser-Pro-Try-Ser-Leu-His-Tyr-Leu-Ser-Pro-Thr-Gly-Val-Asn-Glu-Tyr-Ser-Pro-Val-Cit-Phe(NH2)-Phe(NH2)-Phe(NH2)-Phe(NH2)-Lys(N3-DBCO)-Glu(2B)-Trp-Glu(2B)-Trp-Glu(2B)—NH2 (EEEEEVXDFTGSNGDPSSPYSLHYLSPTGVNEYSPVXXXXXX; acetyl, citrulline, DBCO click conjugate, amidated; SITE 1 Wherein Glu is modified with an acetyl group at the N-terminus; SITE 7 citrulline (Cit); SITE 37 citrulline (Cit); SITE 38..41 para-amino-phenylalanine.; SITE 42 azido-lysine (Lys(N3))) [SEQ ID NO: 42, negatively charged Cpne1 peptide antigen conjugate] |  | CD8 T cell responses detected in vaccinated animals (CD8 T cell responses [2]): detected in all vaccinated animals; CD8 T cell responses, tris salts of the negatively charged conjugate (CD8 T cell responses [2]): CD8 T cell responses were induced in all animals |
| KKK-SGSGSGSGSGSGSGSGSGSGSGSG-(Lys(N3-DBCO))-Ahx-(F′)5: peptide-based linear amphiphilic carrier molecule C-B-L-H (chain 1 KKKSGSGSGSGSGSGSGSGSGSGSGSG[Lys(N3)′](DBCO′)[Ahx]; chain 2 [F′][F′][F′][F′][F′]; also: chain 2 (F′)5 follows Ahx of chain 1) | 1013 |  |
| KKK-SGSGSGSGSGSGSGSGSGSGSGSG-(Lys(N3-DBCO))-Ahx-(F′)10: peptide-based linear amphiphilic carrier molecule C-B-L-H (chain 1 KKKSGSGSGSGSGSGSGSGSGSGSGSG[Lys(N3)′](DBCO′)[Ahx]; chain 2 [F′][F′][F′][F′][F′][F′][F′][F′][F′][F′]; also: chain 2 (F′)10 follows Ahx of chain 1) | 3839 |  |
| KKK-SGSGSGSGSGSGSGSGSGSGSGSG-(Lys(N3-DBCO))-Ahx-(F′)20: peptide-based linear amphiphilic carrier molecule C-B-L-H (chain 1 KKKSGSGSGSGSGSGSGSGSGSGSGSG[Lys(N3)′](DBCO′)[Ahx]; chain 2 [F′][F′][F′][F′][F′][F′][F′][F′][F′][F′][F′][F′][F′][F′][F′][F′][F′][F′][F′][F′]; also: chain 2 (F′)20 follows Ahx of chain 1) | 1521 |  |
| KKK-SGSGSGSGSGSGSGSGSGSGSGSG-(Lys(N3-DBCO))-Bis(Ahx-F′10)2: peptide-based linear amphiphilic carrier molecule C-B-L-H (chain 1 KKKSGSGSGSGSGSGSGSGSGSGSGSG[Lys(N3)′](DBCO′)[Ahx]; chain 2 [F′][F′][F′][F′][F′][F′][F′][F′][F′][F′]; also: two Ahx-F′10 arms, branching not given here, one arm shown) | 2683 |  |
| KKKKKKK-SGSGSGSGSGSGSGSGSGSGSGSG-(Lys(N3-DBCO))-Ahx-(F′)5: peptide-based linear amphiphilic carrier molecule C-B-L-H | 477 |  |
| KKKKKKK-SGSGSGSGSGSGSGSGSGSGSGSG-(Lys(N3-DBCO))-Ahx-(F′)20: peptide-based linear amphiphilic carrier molecule C-B-L-H | 32 |  |
| Lys-Lys-Lys-Lys-Lys-Lys-Lys-Lys-Lys-Val-Arg-Asp-Phe-Thr-Gly-Ser-Asn-Gly-Asp-Pro-Ser-Ser-Pro-Tyr-Ser-Leu-His-Tyr-Leu-Ser-Pro-Thr-Gly-Val-Asn-Glu- Tyr-Ser-Pro-Val-Cit-Lys(N3-DBCO)-Glu(2B)-Trp-Glu(2B)-Trp-Glu(2B)—NH2 (KKKKKKKKKVRDFTGSNGDPSSPYSLHYLSPTGVNEYSPVXX; citrulline, DBCO click conjugate, amidated; SITE 41 citrulline (Cit); SITE 42 azido-lysine (Lys(N3))) [SEQ ID NO: 76, positively charged Cpne1 peptide antigen conjugate] |  | CD8 T cell responses detected in vaccinated animals (CD8 T cell responses [2]): detected in all vaccinated animals |
